Tests used:
[1] = target: CrtJ (R. capsulatus) (UniProt P26167); experiment: MST
[2] = target: CrtJ (R. capsulatus) (UniProt P26167); experiment: SEC
[3] = target: the molecule itself; experiment: SEC

Row | EC50 [1] [µM] | stoichiometry N [2] | Molecule | stoichiometry N [3]
1 | 3.3 | 1 | AerR:B12 (natural protein) | –
2 | – | – | CrtJ (natural protein, R. capsulatus, UniProt P26167 1-469, looked up) MTSDGSFLMRREALQRVSPDLLADIVTSACDIALVVSPGRVVESVMVNPQFGSAERFAAWQGARLSQLFSPESAQKLENRLADGPEPGRSLQLELTHAADAFTLPVRYTITRSGEDGTLLLIGRDMQPLAEVQQQLVKAQLALERDYEAQREIETRYRVLLEAHPAPLLIVSMSTGRIADLNLAAAAMIGATRAELIDAPVGQELDGRRRGEFLENLAKIAGSDPLGAVELTIRRSRRKVTVTATLFRAAGDRLLLCRLGEAEARRTRVDDTVELSERLFLKGIDAMVFLDADGTIRAANDAFLYLTDAGSAALVQGRSFADFLSRGAVDLNVLLDNVKRIGHLRHYVTRLNTDFSGQVTVELSATLFHDRATPTIALVIRDSNLADATRIMPGMASNEGLRNVMQMVGYATLRDIVSETTEIIEKMCIETALELTGNNRVAAAELLSLSRQSLYVKLRKFGLLSKDAE | 2

— publication PMC3946051 (Molecular microbiology, 2014)
